Molecular target: the molecule itself
Assay: SEC; Superose 6 (3.2/300) in 150 mM KCl, 25 mM Tris-HCl pH 7.2, 5% glycerol, 0.05% NP-40, 1 mM EDTA, 4 mM MgCl2; purified Yta7 and mutants

B1: Yta7 ATP-binding mutant (K460A, Walker A), 3xFLAG-tagged (enzyme, S. cerevisiae, UniProt P40340 1-1379, looked up)
chain: MARNLRNRRGSDVEDASNAKVGYETQIKDENGIIHTTTRSLRKINYAEIEKVFDFLEDDQVMDKDETPVDVTSDEHHNNNQKGDDEDDDVDLVSPHENARTNEELTNERNLRKRKAHDPEEDDESFHEEDVDDDEEEEEADEFEDEYLDEDSKDNNRRRRAADRKFVVPDPDDDEEYDEDDEEGDRISHSASSKRLKRANSRRTRSSRHPETPPPVRRALRSRTRHSRTSNEENDDENDNSRNEALTLADEIRELQEDSPIREKRFLRERTKPVNYKLPPPLTASNAEEFIDKNNNALSFHNPSPARRGRGGWNASQNSGPTRRLFPTGGPFGGNDVTTIFGKNTNFYNQVPSAFSDNNNNKLILDSDSSDDEILPLGVTPKTKKENTQKKKKKKPEIADLDPLGVDMNVNFDDIGGLDNYIDQLKEMVALPLLYPELYQNFNITPPRGVLFHGPPGTGATLMARALAASCSSDERKITFFMRKGADILSKWVGEAERQLRLLFEEAKKHQPSIIFFDEIDGLAPVRSSKQEQIHASIVSTLLALMDGMDNRGQVIVIGATNRPDAVDPALRRPGRFDREFYFPLPDVKARFKILQIQTRKWSSPLSTNFIDKLAFLTKGYGGADLRSLCTEAALISIQRSFPQIYRSNDKLLVDPSKIKVKVSDFMLALKKIVPSSARSTGSSPQPLPELIKPLLADQLNNLKNKLDYMLNIKDTTFQRNTSLLQNFIDYEEYSGEEEEHDKYGGNEDTSSFRSYEFFESMAESQICKPRLLINGPKGNGQQYVGAAILNYLEEFNVQNLDLASLVSESSRTIEAAVVQSFMEAKKRQPSVVFIPNLDIWINTIPENVILVLSGLFRSLQSNEKILLLCLAENLDISEVKNGILSDFAFDKNIFQLHKPSKENITRYFSNLIELLKTKPSDIPMKKRRVKPLPELQKVTSNAAPTNFDENGEPLSEKVVLRRKLKSFQHQDMRLKNVLKIKLSGLMDLFKNRYKRFRKPPIDDAFLVHLFEPETSNDPNWQPAYIKDENMILEVSTGRKFFNMDLDIVEERLWNGYYSEPKQFLKDIELIYRDANTIGDRERVIKASEMFANAQMGIEEISTPDFIQECKATRQRDLERQELFLEDEEKRAAMELEAKEQSQENILQEPDLKDNKANEFGVAAGNQLQAQLQTTINTASIVNNSEVPQPIDTNLYKKEIPAAIPSAVDKEKAVIPEDSGANEEYTTELIQATCTSEITTDDDERARKEPKENEDSLQTQVTEENFSKIDANTNNINHVKEIQSVNKPNSLHETVEKRERSPIPKEVVEPEQGKKSDKELILTPEQIKKVSACLIEHCQNFTVSQLEDVHSSVAKIIWKSKSAWDKTGTVDEIIKFLSE
notes: Yta7, Saccharomyces cerevisiae; K460A mutant of the Walker A motif within the active AAA+ domain; also called ATPase mutant; source: S. cerevisiae (GAL1-10 promoter, G1-arrested, endogenous copy eliminated), purified (anti-FLAG M2, MonoQ, SEC); not shown: 3xFLAG, C-terminal, kept
For B1, the “stoichiometry N” value was 6.

From PMC8410769, “A CDK-regulated chromatin segregase promoting chromosome replication” (Nature Communications, 2021)
